This experiment concerns the target mesothelin-Fc fusion protein, immobilized on beads (UniProt Q13421). The experiment can be described thus: cell-based or functional assay.
Sequence of UniProt Q13421 (Q13421 other isoform, or with tags, fused parts or gaps limits assumed): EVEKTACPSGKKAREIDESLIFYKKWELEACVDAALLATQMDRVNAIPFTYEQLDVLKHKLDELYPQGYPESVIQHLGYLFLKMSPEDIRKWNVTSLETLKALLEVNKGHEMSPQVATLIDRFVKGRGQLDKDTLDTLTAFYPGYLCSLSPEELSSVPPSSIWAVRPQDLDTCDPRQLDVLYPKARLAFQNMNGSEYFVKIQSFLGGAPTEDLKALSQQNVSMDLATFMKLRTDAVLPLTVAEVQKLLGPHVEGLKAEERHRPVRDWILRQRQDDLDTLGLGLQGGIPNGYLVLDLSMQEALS

Turning to “mesothelin-specific 28z CAR (SS1 scFv, CD28 and CD3z signaling domains) (receptor)”, the Total Population Doublings (donor 1) (population doublings) came out at 5.8, the Total Population Doublings (donor 2) (population doublings) is 6.9 and the Total Population Doublings (donor 3) (population doublings) is 6.
The like results for “mesothelin-specific BBz CAR (SS1 scFv, 4-1BB and CD3z signaling domains) (receptor)” were, in that order, 8.8, 8.4 and 8.4.
